Source: US20260042854A1, “ANTI-GLP-1R ANTIBODIES AND USES THEREOF” (SCIWIND BIOSCIENCES USA CO., LTD, priority 2022, published 2026)

Key:
[1] = biological target: hGLP-1R on the cell membrane (HEK293 cells overexpressing hGLP-1R) (human) (UniProt P43220); experiment: cell-based or functional assay
[2] = biological target: monkey GLP-1R (JN033215.1) on HEK293 cells (monkey); experiment: cell-based or functional assay

Chain of hGLP-1R on the cell membrane (HEK293 cells overexpressing hGLP-1R) (human) (P43220 24-463): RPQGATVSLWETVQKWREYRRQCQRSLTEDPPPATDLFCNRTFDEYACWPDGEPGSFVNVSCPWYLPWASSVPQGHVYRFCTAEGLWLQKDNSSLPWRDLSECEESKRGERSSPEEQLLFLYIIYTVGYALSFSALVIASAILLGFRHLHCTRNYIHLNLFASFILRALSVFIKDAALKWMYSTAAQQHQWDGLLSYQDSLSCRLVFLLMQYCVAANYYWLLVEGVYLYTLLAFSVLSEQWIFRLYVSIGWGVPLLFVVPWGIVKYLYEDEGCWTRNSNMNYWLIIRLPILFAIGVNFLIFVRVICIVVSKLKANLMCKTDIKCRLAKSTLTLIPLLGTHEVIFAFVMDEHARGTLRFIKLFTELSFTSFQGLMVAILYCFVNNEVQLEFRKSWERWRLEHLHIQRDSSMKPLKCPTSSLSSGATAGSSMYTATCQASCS

B1: P16891 (antibody, human IgG4 S228P, kappa)
heavy: QVQLVQSGAEMKKPGASVKVSCKTSGYRFSTYVISWVRQTPGQGLEWMGWISPYTGDIDYAQKFQGRVTITADESTSTAYMELSRLRSDDTAVYYCAREREGYNFPGMDVWGQGTTVTVSSASTKGPSVFPLAPCSRSTSESTAALGCLVKDYFPEPVTVSWNSGALTSGVHTFPAVLQSSGLYSLSSVVTVPSSSLGTKTYTCNVDHKPSNTKVDKRVESKYGPPCPPCPAPEFLGGPSVFLFPPKPKDTLYITREPEVTCVVVDVSQEDPEVQFNWYVDGVEVHNAKTKPREEQFNSTYRVVSVLTVLHQDWLNGKEYKCKVSNKGLPSSIEKTISKAKGQPREPQVYTLPPSQEEMTKNQVSLTCLVKGFYPSDIAVEWESNGQPENNYKTTPPVLDSDGSFFLYSRLTVDKSRWQEGNVFSCSVMHEALHNHYTQKSLSLSLGK
light: DIQLTQSPSFLSASVGDRVTITCRASQGISSYLAWYQQKPGRAPKLLIYSASTLQRGVPSRFSGSGSGTDFTLTISSLQPEDYATYYCQQAESFPPSFGPGTKVDIKRTVAAPSVFIFPPSDEQLKSGTASVVCLLNNFYPREAKVQWKVDNALQSGNSQESVTEQDSKDSTYSLSSTLTLSKADYEKHKVYACEVTHQGLSSPVTKSFNRGEC
Binder B1 has an IC50, inhibition of GLP-1 (2.5 ng/ml) activity in hGLP-1R-CRE-Luciferase-HEK293 reporter gene assay [1] of 17.2 nM and an IC50, inhibition of GLP-1 (2.5 ng/mL) activity in monkey GLP-1R-CRE-Luciferase-HEK293 reporter gene assay [2] of 13.8 nM.
